# Substitutions are numbered along the chain they refer to. Numbers in names are those of the source. Where “and” joins values, the source holds several entries; their conditions need not be identical. Equal values may be shown once.
# B1: 72F (protein, listed as Rattus norvegicus)
# chain: AFDGTWKVDRNENYEKFMEKMGINVVKRKLGAHDNLKLTITQEGNKFTVKESSNFRNIDVVFELGVDFAYSFADGTELTGTWTMEGNKLVGKFKRVDNGKELIAVREISGNELIQTYTYEGVEAKRIFKKE
# modifications: PEPTIDE (1)...(131) wild-type rat intestinal fatty acid binding protein
# B2: 72H 73P 74L (protein, listed as Rattus norvegicus)
# chain: B1 chain with F72H, A73P, D74L
# modifications: PEPTIDE (1)...(131) wild-type rat intestinal fatty acid binding protein
# B3: 72T 73W 74G (protein, listed as Rattus norvegicus)
# chain: B1 chain with F72T, A73W, D74G
# modifications: PEPTIDE (1)...(131) wild-type rat intestinal fatty acid binding protein
# B4: 72S 73P 74I (protein, listed as Rattus norvegicus)
# chain: B1 chain with F72S, A73P, D74I
# modifications: PEPTIDE (1)...(131) wild-type rat intestinal fatty acid binding protein
# B5: 18I 31F 72A (protein, listed as Rattus norvegicus)
# chain: B1 chain with M18I, G31F, F72A
# modifications: PEPTIDE (1)...(131) wild-type rat intestinal fatty acid binding protein
# B6: 119M, 72A (protein, listed as Rattus norvegicus)
# chain: B1 chain with F72A, Y119M
# modifications: PEPTIDE (1)...(131) wild-type rat intestinal fatty acid binding protein
# B7: 38Y 62W 117A 72A (protein, listed as Rattus norvegicus)
# chain: B1 chain with L38Y, F62W, F72A, Y117A
# modifications: PEPTIDE (1)...(131) wild-type rat intestinal fatty acid binding protein
# B8: L2P11B4: FABP probe, substitutions M18V G31A A73W vs SEQ ID NO: 2 (protein, listed as Rattus norvegicus)
# chain: B1 chain with M18V, G31A, F72L, A73W
# modifications: PEPTIDE (1)...(131) wild-type rat intestinal fatty acid binding protein
# B9: L2P22G6: FABP probe, substitutions M18I G31Y A73G vs SEQ ID NO: 2 (protein, listed as Rattus norvegicus)
# chain: B1 chain with M18I, G31Y, F72L, A73G
# modifications: PEPTIDE (1)...(131) wild-type rat intestinal fatty acid binding protein
# B10: L2P2E11: FABP probe, substitutions M18I G31F vs SEQ ID NO: 2 (protein, listed as Rattus norvegicus)
# chain: B1 chain with M18I, G31F, F72L
# modifications: PEPTIDE (1)...(131) wild-type rat intestinal fatty acid binding protein
# B11: L2P17H10: FABP probe, substitutions M18G G31F A73L vs SEQ ID NO: 2 (protein, listed as Rattus norvegicus)
# chain: B1 chain with M18G, G31F, F72L, A73L
# modifications: PEPTIDE (1)...(131) wild-type rat intestinal fatty acid binding protein
# B12: L1P1 B4: FABP probe, mutations 14I 72W 117W vs SEQ ID NO: 2 (protein, listed as Rattus norvegicus)
# chain: B1 chain with Y14I, F72W, Y117W
# modifications: PEPTIDE (1)...(131) wild-type rat intestinal fatty acid binding protein
# B13: L1P12 E8: FABP probe, mutations 14L 38A 72G 117F 114E vs SEQ ID NO: 2 (protein, listed as Rattus norvegicus)
# chain: B1 chain with Y14L, L38A, F72G, I114E, Y117F
# modifications: PEPTIDE (1)...(131) wild-type rat intestinal fatty acid binding protein
# B14: L1P1 C12: FABP probe, mutations 38I 72W 117W vs SEQ ID NO: 2 (protein, listed as Rattus norvegicus)
# chain: B1 chain with L38I, F72W, Y117W
# modifications: PEPTIDE (1)...(131) wild-type rat intestinal fatty acid binding protein
# B15: L1P14 D6: FABP probe, mutations 14M 72V 117W vs SEQ ID NO: 2 (protein, listed as Rattus norvegicus)
# chain: B1 chain with Y14M, F72V, Y117W
# modifications: PEPTIDE (1)...(131) wild-type rat intestinal fatty acid binding protein
# B16: L1P5 H9: FABP probe, mutations 14M 72I 117W vs SEQ ID NO: 2 (protein, listed as Rattus norvegicus)
# chain: B1 chain with Y14M, F72I, Y117W
# modifications: PEPTIDE (1)...(131) wild-type rat intestinal fatty acid binding protein
# B17: L2P22 B1: FABP probe, mutations 18Y 31V 55V 72A vs SEQ ID NO: 2 (protein, listed as Rattus norvegicus)
# chain: B1 chain with M18Y, G31V, F55V, F72A
# modifications: PEPTIDE (1)...(131) wild-type rat intestinal fatty acid binding protein
# B18: L5P16 H4: FABP probe, mutations 126K 73F 72A vs SEQ ID NO: 2 (protein, listed as Rattus norvegicus)
# chain: B1 chain with F72A, A73F, R126K
# modifications: PEPTIDE (1)...(131) wild-type rat intestinal fatty acid binding protein
# Assay: Response profile of probe to fatty acids (Table 2)
# Format: binding
# Settings: not given
row,Molecule,response profile
1,B1,AA lowest
2,B2,"Large Response, Favors"
3,B3,SA and AA lowest
4,B4,Favors POA and LNA
5,B5,Favors LNA
6,B6,Favors LNA
7,B7,Favors AA

# Assay: Probe fluorescence ratio response to palmitic acid relative to ADIFAB2
# Format: binding
# Settings: Table 5
# In short: (§1)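 Each fatty acid's response was expressed relative to ADIFAB2, the rI-FABP-L72A probe, as ΔR/ΔRreference. ΔR is the change in the background-corrected two-wavelength intensity ratio R=Fλ1/Fλ2 from its analyte-free baseline R0. Emission was read near about 420-480 nm for unbound and about 495-580 nm for FFA-bound probe.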
row,Molecule,ΔR/DRAΔ2 PA
1,B8,2.2
2,B9,1.9
3,B10,2.0
4,B11,1.0

# Same assay, conditions: response relative to ADIFAB2
row,Molecule,DR/DR PA
1,B1,0.46 and 0.456
2,B2,5.260
3,B3,1.817
4,B4,2.210
5,B5,2.037
6,B6,0.722
7,B7,0.316

# Assay: Probe fluorescence ratio response to palmitoleic acid relative to ADIFAB2
# Format: binding
# Settings: Table 5
# In short: as §1
row,Molecule,ΔR/DRAΔ2 POA
1,B8,3.1
2,B9,2.6
3,B10,2.6
4,B11,1.2

# Same assay, conditions: response relative to ADIFAB2
row,Molecule,DR/DR POA
1,B2,7.165
2,B3,2.770
3,B4,3.155
4,B5,2.659
5,B7,0.272

# Assay: Probe fluorescence intensity change with UCB:BSA
# Format: binding
# Settings: 1:1 UCB:BSA, 440 nm
row,Molecule,ΔI/Io 1:1 UCB:BSA 440 nm
1,B12,−0.66
2,B13,−0.79
3,B14,−0.92
4,B15,−0.69
5,B16,−0.58
6,B17,−0.70
7,B18,−0.69

# Same assay, conditions: 1:1 UCB:BSA, 500 nm
row,Molecule,ΔI/Io 1:1 UCB:BSA 500 nm
1,B12,−0.64
2,B13,−0.70
3,B14,−0.86
4,B15,−0.64
5,B16,−0.63
6,B17,−0.68
7,B18,−0.64

# Same assay, conditions: 1:2 UCB:BSA, 440 nm
row,Molecule,ΔI/Io 1:2 UCB:BSA 440 nm
1,B12,−0.36
2,B13,−0.45
3,B14,−0.86
4,B15,−0.37
5,B16,−0.34
6,B17,−0.36
7,B18,−0.37

# Same assay, conditions: 1:2 UCB:BSA, 500 nm
row,Molecule,ΔI/Io 1:2 UCB:BSA 500 nm
1,B12,−0.35
2,B13,−0.39
3,B14,−0.79
4,B15,−0.33
5,B16,−0.34
6,B17,−0.35
7,B18,−0.31

# Assay: Probe fluorescence ratio response to linolenic acid relative to ADIFAB2
# Format: binding
# Settings: Table 5
# In short: as §1
row,Molecule,ΔR/DRAΔ2 LNA
1,B8,2.8
2,B9,2.7
3,B10,2.8
4,B11,1.2

# Same assay, conditions: response relative to ADIFAB2
row,Molecule,DR/DR LNA
1,B1,0.59 and 0.592
2,B2,6.352
3,B3,1.702
4,B4,3.091
5,B5,3.027
6,B6,2.280
7,B7,1.237

# Assay: Probe fluorescence ratio response to linoleic acid relative to ADIFAB2
# Format: binding
# Settings: Table 5
# In short: as §1
row,Molecule,ΔR/DRAΔ2 LA
1,B8,2.6
2,B9,2.6
3,B10,2.5
4,B11,1.5

# Same assay, conditions: response relative to ADIFAB2
row,Molecule,DR/DR LA
1,B1,0.61 and 0.612
2,B2,5.429
3,B3,1.348
4,B4,2.792
5,B5,2.707
6,B6,1.184
7,B7,1.848

# Assay: Probe fluorescence ratio response to arachidonic acid relative to ADIFAB2
# Format: binding
# Settings: Arachidonic acid; response relative to ADIFAB2
# In short: as §1
row,Molecule,DR/DR AA
1,B1,0.40

# Same assay, conditions: Table 5; Arachidonic acid
row,Molecule,ΔR/DRAΔ2 AA
1,B8,1.8
2,B9,1.8
3,B10,1.9
4,B11,1.8

# Same assay, conditions: arachidonic acid; response relative to ADIFAB2
row,Molecule,DR/DR AA
1,B1,0.401
2,B2,4.597
3,B3,0.687
4,B4,2.154
5,B5,2.043
6,B6,1.087
7,B7,2.353

# Assay: Probe fluorescence ratio response to stearic acid relative to ADIFAB2
# Format: binding
# Settings: Table 5
# In short: as §1
row,Molecule,ΔR/DRAΔ2 SA
1,B8,0.7
2,B9,0.9
3,B10,0.8
4,B11,1.7

# Same assay, conditions: response relative to ADIFAB2
row,Molecule,DR/DR SA
1,B2,1.474
2,B3,0.305
3,B4,1.337
4,B5,0.950
5,B7,0.854

# Assay: Probe fluorescence ratio response to oleic acid relative to ADIFAB2
# Format: binding
# Settings: Table 5
# In short: as §1
row,Molecule,ΔR/DRAΔ2 OA
1,B8,1.9
2,B9,1.6
3,B10,1.6
4,B11,1.4

# Same assay, conditions: response relative to ADIFAB2
row,Molecule,DR/DR OA
1,B1,0.57 and 0.571
2,B2,3.919
3,B3,0.822
4,B4,2.162
5,B5,1.761
6,B6,1.191
7,B7,1.896

# Source: patent US20060257938A1, “Method of screening for drugs that block ligand binding to a lipid binding protein” (priority 2005, published 2006)
